One molecule from patent US20200325237A1 (AVIDITY BIOSCIENCES, published 2020) can be followed below.

The target in assay [1] is T1, recombinant human transferrin receptor protein (Sino Biological 11020-H07H) (human, UniProt P02786 89-760).
T1 construct: Bought protein coated on ELISA plates; also called recombinant human TfR1; human TfR1
As to the kind of experiment: ELISA on plate-coated recombinant human TfR1 (CD71); fit: specific binding with Hill slope. As for the experimental part:
Half-well high-binding 96-well plates (Costar #3690) were coated with recombinant human transferrin receptor protein (Sino Biological 11020-H07H) or recombinant cyno transferrin receptor protein (Sino Biological 90253-C07H) at 1 ng/μL in PBS (Gibco 14190) and incubated overnight at 4° C. Plates were washed four times with 100 μL of Tris buffered saline+Tween (20×TBST, Cell Signaling 9997S). 100 μL of Superblock (ThermoFisher PI-37535) was added to each well and incubated for 1 hour at room temperature. The wash step was repeated before the addition of the samples. Samples were added at concentrations up to 10 nM, 50 μL/well. Plates were incubated for another hour at room temp and wash step repeated. Secondary antibody (Peroxidase AffiniPure Goat Anti-Human IgG, Fcγ Fragment Specific, Jackson Immunoresearch, 109-035-098) was diluted 1:5000 in Superblock and 50 μL/well added. Plates were incubated for 1 hour at room temperature and washed one more time. Binding was measured by the addition of 50 μL of 1-Step™ Ultra TMB-ELISA (ThermoFisher, 34028), incubated for 5 minutes, and the reaction was stopped with the addition of 25 μL of Stop Solution 2N sulfuric Acid (R&D Systems DY994). Absorbance was measured at 450 nm, with reference wavelength 570 nm subtracted. Binding constants were determined using GraphPad Prism Specific Binding with Hill Slope.

The target in assay [2] is hTfR (human transferrin receptor, source and construct not stated) (human, UniProt P02786 89-760, limits assumed). The experiment in a line: ELISA; ratio of the Kd on HFE-captured hTfR to the Kd on directly coated hTfR.
For assay [3], the target named is T2, recombinant cyno transferrin receptor protein (Sino Biological 90253-C07H) (cyno, UniProt H9EXL1 89-760 (rhesus entry)).
T2 construct: Bought protein coated on ELISA plates; also called recombinant cyno TfR1; cynoTfR1
The experiment in a line: ELISA on plate-coated recombinant cyno TfR1 (CD71); fit: specific binding with Hill slope. The essentials: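 Plates coated overnight at 4° C with recombinant human or cyno TfR1 (1 ng/μL), blocked, then incubated with samples up to 10 nM for 1 h at room temperature. Bound IgG detected with HRP anti-human Fcγ and TMB (A450 minus A570); Bmax, h and Kd from specific-binding-with-Hill-slope fit.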

T2 sequence (chain, as listed by the source C07H C07H): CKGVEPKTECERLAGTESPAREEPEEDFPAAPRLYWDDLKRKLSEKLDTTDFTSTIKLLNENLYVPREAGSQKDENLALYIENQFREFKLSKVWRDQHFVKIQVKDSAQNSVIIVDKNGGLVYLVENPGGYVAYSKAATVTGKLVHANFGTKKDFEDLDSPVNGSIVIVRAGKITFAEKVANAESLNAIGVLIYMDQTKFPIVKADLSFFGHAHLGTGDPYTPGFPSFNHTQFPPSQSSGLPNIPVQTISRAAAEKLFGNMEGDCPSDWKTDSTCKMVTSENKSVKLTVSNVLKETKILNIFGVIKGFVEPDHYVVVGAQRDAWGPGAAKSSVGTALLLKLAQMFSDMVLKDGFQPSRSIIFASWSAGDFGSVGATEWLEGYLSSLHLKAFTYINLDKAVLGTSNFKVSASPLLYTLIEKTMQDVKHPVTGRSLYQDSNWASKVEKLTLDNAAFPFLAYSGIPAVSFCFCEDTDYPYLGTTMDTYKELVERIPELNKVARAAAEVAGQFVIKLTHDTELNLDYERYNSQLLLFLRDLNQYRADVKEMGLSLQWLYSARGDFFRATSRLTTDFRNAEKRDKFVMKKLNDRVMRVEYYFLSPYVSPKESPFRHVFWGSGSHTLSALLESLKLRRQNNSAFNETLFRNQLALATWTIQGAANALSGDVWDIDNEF
T1 sequence (P02786 89-760 limits assumed): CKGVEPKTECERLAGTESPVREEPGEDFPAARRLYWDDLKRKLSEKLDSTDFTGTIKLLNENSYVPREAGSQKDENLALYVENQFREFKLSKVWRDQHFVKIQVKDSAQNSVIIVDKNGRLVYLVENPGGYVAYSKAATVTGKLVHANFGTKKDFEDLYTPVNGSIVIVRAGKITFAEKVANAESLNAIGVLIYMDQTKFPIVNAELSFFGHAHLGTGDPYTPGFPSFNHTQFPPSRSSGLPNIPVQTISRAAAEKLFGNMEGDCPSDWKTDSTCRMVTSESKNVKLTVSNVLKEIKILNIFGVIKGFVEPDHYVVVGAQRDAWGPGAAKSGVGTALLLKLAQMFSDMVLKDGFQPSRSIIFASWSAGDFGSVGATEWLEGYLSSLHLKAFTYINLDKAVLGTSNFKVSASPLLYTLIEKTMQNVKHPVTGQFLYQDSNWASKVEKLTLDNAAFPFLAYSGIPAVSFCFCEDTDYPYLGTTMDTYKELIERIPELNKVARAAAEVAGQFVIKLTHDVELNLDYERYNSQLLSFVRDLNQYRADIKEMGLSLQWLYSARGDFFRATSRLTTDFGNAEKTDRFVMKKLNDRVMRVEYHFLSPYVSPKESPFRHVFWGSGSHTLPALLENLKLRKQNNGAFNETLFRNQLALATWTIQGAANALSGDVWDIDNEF
Chain of hTfR (human transferrin receptor, source and construct not stated) (P02786 89-760 limits assumed): as above

B1: 13E4_WT (parent chimeric anti-TfR antibody) (antibody, V domains shown)
VH: QVQLQQPGAELVKPGASVKLSCKASGYTFTNYWMHWVKQRPGQGLEWIGEINPINGRSNYGERFKTKATLTVDKSSSTAYMQLSSLTSEDSAVYYCARGTRAMHYWGQGTSVTVSS
VL: DIQMTQSPASLSVSVGETVTITCRTSENIYNNLAWYQQKQGKSPQLLVYAATNLADGVPSRFSGSGSGTQYSLKINSLQSEDFGNYYCQHFWGTPLTFGAGTKLELK
notes: also called 13E4_WT 1st; 13E4_WT 2nd
One may read the Kd as the equilibrium constant for the complex coming apart. As to B1, in assay [1], the Bmax was determined as 98.3 % max binding, the Kd is 6.2 pM and the h turned out to be 1.18. In addition, in assay [2], the “Kd(HFE+TfR)/Kd(TfR)” value is 16.9. In addition, in assay [3], the Bmax is 99.1 % max binding, the Kd was determined as 5.82 pM and the h was determined as 1.34.
